This assay concerns the target T1, Apaf-1 (human), O14727.
T1 chain: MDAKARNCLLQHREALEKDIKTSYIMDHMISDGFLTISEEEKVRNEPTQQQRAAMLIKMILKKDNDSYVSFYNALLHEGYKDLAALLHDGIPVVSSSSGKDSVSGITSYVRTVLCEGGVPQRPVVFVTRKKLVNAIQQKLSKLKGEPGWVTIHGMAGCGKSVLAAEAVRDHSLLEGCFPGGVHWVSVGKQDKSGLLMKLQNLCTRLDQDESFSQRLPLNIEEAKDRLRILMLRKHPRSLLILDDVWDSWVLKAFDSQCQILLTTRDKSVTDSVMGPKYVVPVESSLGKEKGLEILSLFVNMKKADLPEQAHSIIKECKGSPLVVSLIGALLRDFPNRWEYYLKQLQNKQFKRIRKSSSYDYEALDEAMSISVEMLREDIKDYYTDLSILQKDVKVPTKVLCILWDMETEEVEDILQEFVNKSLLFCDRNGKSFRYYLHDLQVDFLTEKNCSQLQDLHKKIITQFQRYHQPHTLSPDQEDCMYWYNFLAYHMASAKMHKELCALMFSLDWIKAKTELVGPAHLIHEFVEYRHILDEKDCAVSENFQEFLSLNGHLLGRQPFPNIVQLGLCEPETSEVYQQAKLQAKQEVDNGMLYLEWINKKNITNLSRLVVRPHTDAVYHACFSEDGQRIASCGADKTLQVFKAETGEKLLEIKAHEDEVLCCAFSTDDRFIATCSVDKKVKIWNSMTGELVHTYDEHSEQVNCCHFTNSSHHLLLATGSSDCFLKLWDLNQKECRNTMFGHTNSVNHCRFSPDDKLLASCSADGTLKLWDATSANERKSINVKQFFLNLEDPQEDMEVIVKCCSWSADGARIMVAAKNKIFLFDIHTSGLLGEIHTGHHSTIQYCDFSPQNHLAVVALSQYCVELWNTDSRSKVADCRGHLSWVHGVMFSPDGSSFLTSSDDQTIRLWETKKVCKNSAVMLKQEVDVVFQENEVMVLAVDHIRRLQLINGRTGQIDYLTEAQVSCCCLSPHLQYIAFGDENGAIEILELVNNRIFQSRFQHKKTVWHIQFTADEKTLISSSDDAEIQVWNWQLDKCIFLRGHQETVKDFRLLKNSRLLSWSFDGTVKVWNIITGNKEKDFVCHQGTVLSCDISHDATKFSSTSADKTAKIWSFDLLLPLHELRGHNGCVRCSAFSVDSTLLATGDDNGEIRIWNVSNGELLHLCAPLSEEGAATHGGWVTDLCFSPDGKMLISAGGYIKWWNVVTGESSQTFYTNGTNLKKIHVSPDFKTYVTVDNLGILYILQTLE
Briefly: cryo-EM structure. The note with it: remark: other sources report otherwise.

B1: Apaf-1, O14727 1-1248 (natural protein)
chain: T1 chain
One may read the stoichiometry N as a count of units in the complex or per binding partner. In turn, B1 gave a stoichiometry N of 7.
